Bridge positions count the residues as written; N and C are the ends. Square brackets hold non-standard residues; d marks the D form. Ends that are not written are not given here. * marks the point of attachment. Acetyl(2-(4-imidazolyl)) = O=C(Cc1c[nH]cn1)*; Aib = CC(C)(N)C(=O)O
T1: human GIP receptor (human, UniProt P48546 22-466)
T1 sequence (looked up): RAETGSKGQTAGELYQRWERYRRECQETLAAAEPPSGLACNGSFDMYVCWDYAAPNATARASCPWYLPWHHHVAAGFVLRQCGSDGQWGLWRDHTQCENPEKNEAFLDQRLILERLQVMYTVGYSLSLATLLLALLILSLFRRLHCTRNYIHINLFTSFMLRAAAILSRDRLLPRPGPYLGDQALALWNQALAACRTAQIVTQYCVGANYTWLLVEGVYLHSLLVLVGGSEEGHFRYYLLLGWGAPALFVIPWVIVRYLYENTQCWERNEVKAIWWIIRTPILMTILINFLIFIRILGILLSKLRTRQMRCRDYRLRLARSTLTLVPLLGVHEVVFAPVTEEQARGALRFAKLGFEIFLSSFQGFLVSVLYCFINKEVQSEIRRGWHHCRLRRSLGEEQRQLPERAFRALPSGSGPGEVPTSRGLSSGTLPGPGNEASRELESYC


Assays:
MC3T3-E1 osteoblasts [1] = assay: ColA1 protein in medium of MC3T3-E1 osteoblasts (collagen assay kit); type: cell-based; details: co-treatment with GIP inhibitor (10 μM or 100 μM), 7 days (FIG. 4)
Protocol: MC3T3-E1 osteoblasts were dispensed into 12-well plates at 100,000 cells/well and incubated for 24 hours using a medium containing 10% fetal bovine serum. […] The long-acting GIP used in the present invention was prepared by the same method as in the long-acting conjugate of the triple agonist illustrated in Example 2, wherein the long-acting GIP is in a form in which immunoglobulin Fc was linked to GIP analog via PEG, and the GIP inhibitor is GIP 3-30, in which the N-terminus was absent in native GIP.
After 7 days, the incubated medium was collected, and ColA1 in the medium was quantified using a collagen assay kit (Biocolor) according to the manufacturer's instructions.
Statistical analysis was performed by one-way ANOVA to compare between the control group and the test groups.

MC3T3-E1 osteoblasts [2] = assay: Cell viability of MC3T3-E1 osteoblasts under fetal bovine serum deficiency; type: cell-based; details: co-treatment with conjugate (2 μM) and GIP inhibitor 0.31, 1.25, 5, 20 μM; dose-dependent manner (FIG. 5)
Protocol: MC3T3-E1 osteoblasts were dispensed into 96-well plates at 10,000 cells/well and incubated for 24 hours using a medium containing 10% fetal bovine serum. The medium in a normal group was replaced with a medium containing 10% bovine fetal serum, and the medium in each of the test groups was replaced with a medium containing no bovine fetal serum. […] The medium in each of the normal group and test groups was replaced, and after 48 hours, the cells were further incubated. Thereafter, the cell viability was analyzed using a collagen assay kit (Biocolor) according to the manufacturers instructions. The GIP inhibitor is GIP 3-30, in which the N-terminus region was absent in native GIP.

human GLP-1 receptor = human GLP-1 receptor (human, UniProt P43220 24-463); assay: cell-based or functional assay
human GIP receptor = target: T1, human GIP receptor; assay: cell-based or functional assay
human GCG receptor = human GCG receptor (human, UniProt P47871 26-477); assay: cell-based or functional assay
Sequence of human GCG receptor (P47871 26-477): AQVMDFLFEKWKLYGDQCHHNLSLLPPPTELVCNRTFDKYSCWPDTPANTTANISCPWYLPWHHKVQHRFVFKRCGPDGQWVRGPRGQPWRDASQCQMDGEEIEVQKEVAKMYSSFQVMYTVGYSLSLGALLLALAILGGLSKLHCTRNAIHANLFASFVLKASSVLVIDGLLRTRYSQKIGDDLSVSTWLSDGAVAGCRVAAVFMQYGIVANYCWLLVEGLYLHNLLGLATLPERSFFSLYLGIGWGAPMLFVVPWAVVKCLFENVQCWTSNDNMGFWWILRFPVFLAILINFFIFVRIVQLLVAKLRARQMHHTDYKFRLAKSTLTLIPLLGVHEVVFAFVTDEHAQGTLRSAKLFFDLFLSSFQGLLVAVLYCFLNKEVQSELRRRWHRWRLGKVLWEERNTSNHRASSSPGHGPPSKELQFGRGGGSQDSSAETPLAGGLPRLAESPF

| Molecule | effect of the long-acting conjugate of SEQ ID NO: 42 on the expression of ColA1 protein (MC3T3-E1 osteoblasts [1]) | cell viability increased by the long-acting conjugate of SEQ ID NO: 42 (MC3T3-E1 osteoblasts [2]) | In vitro activity (%) compared with native peptide, vs GLP-1 (human GLP-1 receptor) [%] | In vitro activity (%) compared with native peptide, vs GIP (human GIP receptor) [%] | In vitro activity (%) compared with native peptide, vs Glucagon (human GCG receptor) [%] |
| --- | --- | --- | --- | --- | --- |
| GIP 3-30 (EGTFISDYSIAMDKIHQQDFVNWLLAQK; Gastric inhibitory polypeptide; UniProt P09681 54-81, looked up, fragment) [GIP inhibitor, GIP 3-30, in which the N-terminus was absent in native GIP, reference compound] | reduced | reduced | – | – | – |
| H[Aib]QGTFTSDVSSYLLGQAAKQFIAWLVKGGGPSSGAPPPSC (not fully specified) [triple agonist of SEQ ID NO: 3] | – | – | 1.8 | < 0.1 | < 0.1 |
| [Acetyl(2-(4-imidazolyl))]GQGTFTSDLSIQYEEEAQQDFVEWLKDTGPSSGAPPPSHG (not fully specified) [triple agonist of SEQ ID NO: 20] | – | – | < 0.1 | < 0.1 | < 0.1 |
| H[Aib]QGTFTSDYSKYLDEKRAQEFVCWLLAQKGKKNDWKHNIT (not fully specified) [triple agonist of SEQ ID NO: 28] | – | – | 17.2 | < 0.1 | 1.6 |
| H[Aib]QGTFTSDYSIAMDEIHQKDFVNWLLAQKC (bridge 16-20; not fully specified) [triple agonist of SEQ ID NO: 33] | – | – | 24.5 | 10.4 | < 0.1 |
| H[Aib]QGTFTSDYSKYLDEKAAKEFVQWLLNTC (bridge 16-20; not fully specified) [triple agonist of SEQ ID NO: 29] | – | – | 38.5 | < 0.1 | 6 |
| H[Aib]QGTFTSDYSKYLDERACQDFVQWLLDQGGPSSGAPPPS (not fully specified) [triple agonist of SEQ ID NO: 27] | – | – | 83.1 | 0.9 | 0.8 |
| H[Aib]QGTFTSDYSKYLDEKACKDFVQWLLDGGPSSGAPPPS (bridge 16-20; not fully specified) [triple agonist of SEQ ID NO: 32] | – | – | 151 | 8.8 | 1.7 |
| H[Aib]QGTFTSDYSKYLDEKACKEFVQWLLAQ (bridge 16-20) [triple agonist of SEQ ID NO: 31] | – | – | 135 | 2.4 | 2.2 |
| H[Aib]QGTFTSDCSKYLDERAAQDFVQWLLDGGPSSGAPPPS (not fully specified) [triple agonist of SEQ ID NO: 25] | – | – | 82.6 | < 0.1 | 0.1 |
| Y[Aib]QGTFTSDYSKYLDECRAKEFVQWLKNGGPSSGAPPPS (bridge 16-20) [triple agonist of SEQ ID NO: 24] | – | – | 41.2 | < 0.1 | 9.3 |
| Y[Aib]QGTFTSDYSKYLDECRAKEFVQWLLAQKGKKNDWKHNIT (bridge 16-20; not fully specified) [triple agonist of SEQ ID NO: 23] | – | – | 4.01 | < 0.1 | 9.3 |
| [Acetyl(2-(4-imidazolyl))]GQGTFTSDLSIQYDSEHQRDFIEWLKDTGPSSGAPPPSHG (not fully specified) [triple agonist of SEQ ID NO: 19] | – | – | < 0.1 | < 0.1 | < 0.1 |
| Y[Aib]QGTFTSDYSKCLDEKRAKEFVQWLLDHHPSSGQPPPS (bridge 16-20) [triple agonist of SEQ ID NO: 22] | – | – | 20.1 | 59.7 | 140 |
| Y[Aib]QGTFTSDYSKYLDECRAKEFVQWLLDHHPSSGQPPPS (bridge 16-20) [triple agonist of SEQ ID NO: 21] | – | – | 17.8 | 22.7 | 267 |
| H[Aib]QGTFTSDCSKYLDSRAAQDFVQWLLDGGPSSGAPPPS (not fully specified) [triple agonist of SEQ ID NO: 26] | – | – | 64.5 | < 0.1 | 0.2 |

Source: US20230355720A1, “PHARMACEUTICAL COMPOSITION FOR PREVENTING OR TREATING BONE DISEASES, COMPRISING TRIPLE AGONIST OR CONJUGATE THEREOF HAVING ACTIVITY WITH RESPECT TO ALL OF GLUCAGON, GLP-1 AND GLP RECEPTORS” (HANMI PHARM. CO., LTD., priority 2020, published 2023)
